Data: PMC3229523, “Identification of Lactoferricin B Intracellular Targets Using an Escherichia coli Proteome Chip” (PLoS ONE, 2011)
Ends that are not written are not given here. * marks the point of attachment. Biotin = O=C1N[C@H]2[C@H](CS[C@H]2CCCCC(=O)*)N1

Legend:
Test in all cases: peptide or protein array; E. coli proteome chip: purified His-tagged proteins printed in duplicate on Fullmoon slides, blocked with 1% BSA; 10 nM N-terminal biotinylated LfcinB with 1% BSA, room temperature, 1 h; detected with DyLight 649-labeled streptavidin, ratio to DyLight 549-labeled anti-His antibody; ProCAT normalisation, local cut-off; triplicate chips
Settings in all cases: both partners purified
[1] = target: T1, YdiT (E. coli K-12, UniProt P77714 1-97)
T1 construct: YdiT, E. coli K-12
T1 sequence (looked up): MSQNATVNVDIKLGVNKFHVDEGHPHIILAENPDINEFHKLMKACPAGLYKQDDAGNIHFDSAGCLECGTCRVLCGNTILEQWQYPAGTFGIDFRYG

[2] = target: T2, BasR (E. coli K-12, UniProt P30843 1-222)
T2 construct: BasR, E. coli K-12
T2 sequence (looked up): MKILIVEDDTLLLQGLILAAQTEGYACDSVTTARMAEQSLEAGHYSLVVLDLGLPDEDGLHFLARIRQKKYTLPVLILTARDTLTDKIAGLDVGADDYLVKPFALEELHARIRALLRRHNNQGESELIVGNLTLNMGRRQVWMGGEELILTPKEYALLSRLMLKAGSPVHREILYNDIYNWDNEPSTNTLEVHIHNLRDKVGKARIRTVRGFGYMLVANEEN

[3] = target: T3, AgaY (E. coli K-12, UniProt P0AB74 1-286)
T3 construct: AgaY, E. coli K-12

[4] = target: T4, Rob (E. coli K-12, UniProt P0ACI0 1-289)
T4 construct: Rob, E. coli K-12
T4 sequence (looked up): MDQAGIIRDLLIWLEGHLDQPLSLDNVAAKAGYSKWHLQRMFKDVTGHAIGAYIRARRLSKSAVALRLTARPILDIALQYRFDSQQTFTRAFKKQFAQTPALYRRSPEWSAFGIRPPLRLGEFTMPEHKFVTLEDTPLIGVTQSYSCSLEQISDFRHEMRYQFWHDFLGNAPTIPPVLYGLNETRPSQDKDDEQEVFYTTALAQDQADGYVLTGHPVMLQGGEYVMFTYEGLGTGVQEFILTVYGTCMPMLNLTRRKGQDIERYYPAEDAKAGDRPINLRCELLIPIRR

[5] = target: RpsB (E. coli K-12, UniProt P0A7V0 1-241)
[6] = target: T5, HyaE (E. coli K-12, UniProt P19931 1-132)
T5 construct: HyaE, E. coli K-12
T5 sequence (looked up): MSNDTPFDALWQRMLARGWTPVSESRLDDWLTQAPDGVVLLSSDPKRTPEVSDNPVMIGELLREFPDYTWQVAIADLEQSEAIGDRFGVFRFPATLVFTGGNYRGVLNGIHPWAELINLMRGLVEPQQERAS

[7] = target: T6, MetL (E. coli K-12, UniProt P00562 1-810)
T6 construct: MetL, E. coli K-12
T6 sequence (looked up): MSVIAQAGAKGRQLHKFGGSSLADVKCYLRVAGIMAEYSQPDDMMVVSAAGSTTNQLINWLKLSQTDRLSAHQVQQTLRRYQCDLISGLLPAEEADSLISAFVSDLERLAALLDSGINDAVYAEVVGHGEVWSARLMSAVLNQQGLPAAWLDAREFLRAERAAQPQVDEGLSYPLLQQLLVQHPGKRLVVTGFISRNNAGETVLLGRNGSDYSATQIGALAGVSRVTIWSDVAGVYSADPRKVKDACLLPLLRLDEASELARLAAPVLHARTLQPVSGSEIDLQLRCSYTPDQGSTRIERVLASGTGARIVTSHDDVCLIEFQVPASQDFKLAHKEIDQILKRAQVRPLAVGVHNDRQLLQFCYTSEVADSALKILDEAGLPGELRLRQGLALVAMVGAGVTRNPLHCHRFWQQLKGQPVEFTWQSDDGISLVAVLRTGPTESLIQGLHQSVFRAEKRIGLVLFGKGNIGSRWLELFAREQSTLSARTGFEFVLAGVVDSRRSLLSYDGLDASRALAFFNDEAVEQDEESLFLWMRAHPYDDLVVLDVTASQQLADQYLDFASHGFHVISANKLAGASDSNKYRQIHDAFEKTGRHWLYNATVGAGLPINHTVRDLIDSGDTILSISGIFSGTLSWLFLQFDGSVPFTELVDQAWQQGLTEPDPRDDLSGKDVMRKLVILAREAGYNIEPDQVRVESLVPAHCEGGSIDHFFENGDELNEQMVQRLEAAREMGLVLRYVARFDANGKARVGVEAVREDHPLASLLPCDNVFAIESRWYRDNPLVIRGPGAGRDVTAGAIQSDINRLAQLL

Measured: binding result

T3 sequence (P0AB74 whole entry): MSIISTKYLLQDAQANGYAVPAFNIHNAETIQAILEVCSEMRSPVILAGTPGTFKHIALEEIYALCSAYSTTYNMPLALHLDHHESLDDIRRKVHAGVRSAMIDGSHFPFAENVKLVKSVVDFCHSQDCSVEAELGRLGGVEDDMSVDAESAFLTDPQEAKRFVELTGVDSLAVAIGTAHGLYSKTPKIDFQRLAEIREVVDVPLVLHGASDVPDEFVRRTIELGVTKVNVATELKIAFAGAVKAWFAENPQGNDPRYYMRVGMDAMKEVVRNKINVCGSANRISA

B1: N-terminal biotinylated Lactoferricin B (peptide, UniProt P24627 36-60, looked up)
peptide: Biotin-FKCRRWQWRMKKLGAPSITCVRRAF
modifications: ends and bridges not checked
notes: lactoferricin B (LfcinB), cationic antimicrobial peptide of 25 amino acids; also called biotinylated LfcinB; biotin-labeled LfcinB; source: bought: Kelowna Inc
binds: all assays above
